Measurements published in patent publication US20180237519A1 (OHIO STATE INNOVATION FOUNDATION, published 2018).

Biological target: T1, CS-1 (human, UniProt Q9NQ25 23-335)
T1 sequence (looked up): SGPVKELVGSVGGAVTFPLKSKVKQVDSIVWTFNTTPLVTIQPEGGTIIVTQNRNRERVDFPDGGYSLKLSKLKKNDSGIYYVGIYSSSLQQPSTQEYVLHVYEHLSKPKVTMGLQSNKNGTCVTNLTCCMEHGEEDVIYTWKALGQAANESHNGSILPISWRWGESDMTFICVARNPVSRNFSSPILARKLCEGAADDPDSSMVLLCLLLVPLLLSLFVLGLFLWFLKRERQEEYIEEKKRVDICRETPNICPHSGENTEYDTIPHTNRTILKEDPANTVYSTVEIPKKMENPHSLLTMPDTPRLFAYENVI
Assay: cell-based or functional assay

B1: anti-CS-1 tri-specific cytotoxic lymphocytes engager (TriCLE) (bispecific antibody)
chain: QVQLVESGGGLVKPGGSLRLSCAASGFTFSSYGMHWVRQAPGKGLEWVAFIRYDGSNKYYADSVKGRFTISRDNSKNTLYLQMNSLRAEDTAVYYCAKDRGLGDGTYFDYWGQGTTVTVSSGGGGSGGGGSGGGGSQSALTQPASVSGSPGQSITISCSGSSSNIGNNAVNWYQQLPGKAPKLLIYYDDLLPSGVSDRFSGSKSGTSAFLAISGLQSEDEADYYCAAWDDSLNGPVFGGGTKLTVLPSGQAGAAASESLFVSNHAYKLELKTGAGFTLPTSYHQQCYYVALDEAQVNSITFTFDTGSGSGTFRDPVGTYRYSASYILLKPSQGPKQQYWAVGTIVDQSAKCTISVRDGVSTSMSKQSQTMVIDGGGGSGGGGSGGGGSSVTVSTGQGWYDMARTAIMTSRACYYVASDESTPSSLQMYATSSSKDVTLTAKDKFKQNLRTESDSPHIMGIWELGQGPRQKVWNMWYTTFSYGSAKCSLKVSAGPRVLEAGPQQLQVQSHHHHHH
  EC50 of cytotoxicity of TriCLE-activated PBMCs against H929: 1.2 nM
  EC50 of cytotoxicity of TriCLE-activated PBMCs against MM1.s: 0.003 nM
  EC50 of cytotoxicity of TriCLE-activated PBMCs against RPMI-8226: 1.8 nM
